Data on one molecule can be found in patent US20240052006A1 (UNIVERSITY OF CHICAGO, published 2024).

This test concerns the target T1, mouse plasma-derived SA (mouse SA, Sigma-Aldrich) (mouse, UniProt P07724 25-608).
T1 construct: The SA in the SPR assay was bought (Sigma-Aldrich, plasma-derived, without IL-4); It is not tied to the bought lot by name; also called mouse serum albumin; MSA
The experiment in a line: SPR (Biacore X100): murine FcRn immobilised by amine coupling on a C1 chip, mouse SA flowed at 4000 to 250 nM in pH 5.8 running buffer; Langmuir fit. On the procedure: Murine FcRn recombinant protein (Acro Biosystems) was immobilized via amine coupling on a C1 chip (GE Healthcare) for ˜200 resonance units (RU) according to the manufacturer's instructions. SA-IL4 or SA (mouse SA, Sigma-Aldrich) was flowed at decreasing concentrations in the running buffer (0.01 M monobasic anhydrous sodium phosphate, pH 5.8, 0.15 M NaCl) at 30 μl/min. The sensor chip was regenerated with PBS, pH 7.4 for every cycle. Specific bindings of SA fusion proteins to FcRn were calculated by comparison to a non-functionalized channel used as a reference. Experimental results were fitted with Langmuir binding kinetics using BIAevaluation software (GE Healthcare).
Background: In SPR one partner is held on a chip, and binding of the other changes the refractive index at the surface.

B1: Murine FcRn recombinant protein (Acro Biosystems) (receptor, mouse)
chain 1: SETRPPLMYHLTAVSNPSTGLPSFWATGWLGPQQYLTYNSLRQEADPCGAWMWENQVSWYWEKETTDLKSKEQLFLEALKTLEKILNGTYTLQGLLGCELASDNSSVPTAVFALNGEEFMKFNPRIGNWTGEWPETEIVANLWMKQPDAARKESEFLLNSCPERLLGHLERGRRNLEWKEPPSMRLKARPGNSGSSVLTCAAFSFYPPELKFRFLRNGLASGSGNCSTGPNGDGSFHAWSLLEVKRGDEHHYQCQVEHEGLAQPLTVDLDSSARSS
chain 2: IQKTPQIQVYSRHPPENGKPNILNCYVTQFHPPHIEIQMLKNGKKIPKVEMSDMSFSKDWSFYILAHTEFTPTETDTYACRVKHASMAEPKTVYWDRDM
notes: Bought from Acro Biosystems and immobilised by amine coupling on a C1 chip; also called Recombinant mouse FcRn; neonatal Fc receptor
On to B1, for which the Kd (commonly the free concentration of one partner at which half of the binding sites on the other are occupied at equilibrium, for simple one-to-one binding) amounted to 294 nM; the koff – broadly, a measure of how fast the partners let go of each other – is 0.0011 s⁻¹; the kon (commonly the second-order rate constant of association) was found to be 3700 M⁻¹ s⁻¹.
